# Assay results published in US7223850 (RIGEL PHARMACEUTICALS, dated 2007).
# T1: HA-tagged RIP (UniProt Q13546 1-671, limits assumed)
# T1 construct: also called HA-RIP; not shown: HA tag
# T1 sequence (looked up): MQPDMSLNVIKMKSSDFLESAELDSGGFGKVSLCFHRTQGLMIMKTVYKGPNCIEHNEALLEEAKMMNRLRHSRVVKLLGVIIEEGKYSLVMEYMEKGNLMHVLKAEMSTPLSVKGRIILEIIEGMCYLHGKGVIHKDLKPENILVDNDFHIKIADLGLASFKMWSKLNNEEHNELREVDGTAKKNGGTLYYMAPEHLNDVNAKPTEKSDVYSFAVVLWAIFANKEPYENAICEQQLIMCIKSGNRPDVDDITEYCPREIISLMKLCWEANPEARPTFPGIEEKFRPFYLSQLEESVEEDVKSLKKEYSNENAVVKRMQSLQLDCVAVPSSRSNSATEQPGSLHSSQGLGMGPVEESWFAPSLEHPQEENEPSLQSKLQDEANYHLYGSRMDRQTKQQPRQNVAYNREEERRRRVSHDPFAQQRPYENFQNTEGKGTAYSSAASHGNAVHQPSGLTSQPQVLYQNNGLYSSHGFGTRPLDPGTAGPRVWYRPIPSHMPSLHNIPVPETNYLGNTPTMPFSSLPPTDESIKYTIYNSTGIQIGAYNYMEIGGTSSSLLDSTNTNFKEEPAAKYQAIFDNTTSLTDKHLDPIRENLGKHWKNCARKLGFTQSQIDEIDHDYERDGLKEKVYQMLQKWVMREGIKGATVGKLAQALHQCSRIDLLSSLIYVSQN
# Molecular target: T1, HA-tagged RIP
# Experiment: co-immunoprecipitation, HA-RIP and Flag-Apop3 mutant co-transfected in Phoenix-A (293 T) cells, anti-Flag immunoblot
row,Binder,binding result
1,"Flag-tagged Apop3(287-518) (other, not shown: Flag tag) FQMVENNMNAAVSTVKDFLSQLKSSNRRFSIPESGQGGTEMDGFRRTIENQHSRNDVMVSEWLNKLNLEEPPSSVPKKCPSLTKRSRAQEEQVPQAWTAGTSSDSMAQPPQTPETSTFRNQMPSPTSTGTPSPGPRGNQGAERQGMNWSCRTPEPNPVTGRPLVNIYNCSGVQVGDNNYLTMQQTTALPTWGLAPSGKGRGLQHPPPVGSQEGPKDPEAWSRPQGWYNHSGK",no binding
2,"Flag-tagged Apop3(1-251) (enzyme, not shown: Flag tag) MSCVKLWPSGAPAPLVSIEELENQELVGKDGFGTVFRAQHRKWGYDVAVKIVNSKAISREVKAMASLDNEFVLRLEGVIEKVNWDQDPKPALVTKFMENGSLSGLLQSQCPRPWPLLCRLLKEVVLGMFYLHDQNPVLLHRDLKPSNVLPDPELHVKLADFGLSTFQGGSQSGTGSGEPGGTLGYLAPELFVNVNRKASTASDVYSFGILMWAVLAGREVELPTEPSLVYEAVCNRQNRPSLAELPQAGPE",no binding
3,"Flag-tagged Apop3(1-196) (enzyme, not shown: Flag tag) MSCVKLWPSGAPAPLVSIEELENQELVGKDGFGTVFRAQHRKWGYDVAVKIVNSKAISREVKAMASLDNEFVLRLEGVIEKVNWDQDPKPALVTKFMENGSLSGLLQSQCPRPWPLLCRLLKEVVLGMFYLHDQNPVLLHRDLKPSNVLPDPELHVKLADFGLSTFQGGSQSGTGSGEPGGTLGYLAPELFVNVNR",no binding
